From PMC4419837, “Purification and characterization of DR_2577 (SlpA) a major S-layer protein from Deinococcus radiodurans” (Frontiers in Microbiology, 2015)
“And” between values parts separate entries of the source, which are not always exact repeats. Equal values may be shown once.

Experiments:
[1] = biological target: the molecule itself; test: SDS-PAGE; standard denaturation: Rotiload, not boiled and not treated with tris-2-carboxy-ethylphosphine; polyacrylamide/urea gel; mass estimated against prestained standard; dimer
[2] = biological target: the molecule itself; test: native gel or EMSA; BN-PAGE, 3-12% gradient gel, 205 V for 5 h at 4°C, about 0.1 ug protein from the main SEC peak; mass estimated against NativeMARK; hexamer

B1: DR_2577 (SlpA), major S-layer protein from Deinococcus radiodurans (natural protein, UniProt Q9RRB6 23-1167, looked up)
chain: APVSAPQVPALTDVPAGHWAKDAIDRLVSRGVILGYPDGTFRGTQNLTRYEAAIIIARLLDQMRDGETPAGMTAEDMTALQNAIQELAADLAALGVRVSDLEANAVSKDDFARLEARIEEVAAAGGEQGATEALQGQIDDLTARVDEYDALRADVDDNASSIAALNDLTVLLNQDILDLQDRVSAVEAAQADFVQRSDFDALGGRVTTVETRVETVNNSLTGRIAALERNAFSVKPSLTIGYSVSRTSRNFDVDRLFPLNADGTVANNAFTSGGIDTDTGAQRRDFGDFGNASDPVVAGAAGLYGFADGVSYTVYFTDGSTATFDGLNPADYKVPTGKVIDTTKGRNGFGFNNLARYKEGSTDIGISLGFDTSGQFSQVTSGTGGSLFSTAGRLQVNQIDLNFGLVTGLPSDAYVDTNGNGKKDDGEATGRGTYLGSGGTAAILRDPAGNVYRPVFFRFKNATTQFSVGNNPVIVTLGQQQKFYFSDYVFDNNYDGRGDGFTVTVDGSNVPVIGAWKPQIKGVYGSRSGLDGTAEAGYGVYYRGVRAQITPVGTLTAGIHYAQEGRDMFGAAQNTTSTPSDVTTYGADLHGKAFGVELHSEYATSRVRPNTANAAVQTSNAFYARVATRKDNLAFDLNTPAAKFGNDTFGVSLYDLNYRKIDAGYNNVAGISEYGYGSYSRTSAQNIAYNPDTGVTAPFANLDRQAYTDANNDGTSDRNADGTVVATNTKIGQMGFGVKAAANLGPVAIGGYYDTSTGANGDNANRMTEAGGSAKVAYSIFSLRGTYNTLDSNRPQIYRDAAGTQIIGDAKVRRYAVQADVTPGLGLFVGAYYRDVNVNGVRSTTDRGLLGRGYLASSFEPGVGNNAYRTGLRCADNNFGTGTRDIDGVGGVLNPAVNLDQSRTATCFTSYGVEAGHAGDNANALVKDLFFRVGYSRVYVPTTATATTGDFSGSVTYGDARYDRKVGVANVRLAGSFSTTNTQLDSRPAGTRGAVGLIVRTDPLENVPFRPQFNGQVGYYTADNRVAAGNYNANATKYGAGVVLNDFLLPQTKIGVRYDGYMAQNRQYTPFDGDGTQGYFSDANNNRRTNLNGVYVEGAYQDLIFSYGTYTLSQKDLNGVEYGSGINNGQPARGQTFKISYKVNF
notes: DR_2577 (SlpA), S-layer protein of Deinococcus radiodurans R1; cysteines at residues 896 and 929; Native protein isolated from the bacterium; It infers that the dimers are held by an intermolecular disulfide bond, and only a computer prediction assigns that bond to Cys929
- stoichiometry N [1]: 2.25 and 2.17
- stoichiometry N [2]: 6.22 and 5.95
